Experimental data from article doi:10.1101/2024.09.19.614015 (bioRxiv, 2024).

Assays:
[1] = biological target: Staphylococcus aureus O-acetyl-L-serine sulfhydrylase (CysK) (S. aureus) (UniProt P63871); assay: SPR
crystal structure = biological target: the molecule itself; assay: crystal structure

| Binder | Kd [1] [µM] | stoichiometry N (crystal structure) |
| --- | --- | --- |
| MFYI [CymR 4] | 4.1 |  |
| Staphylococcus aureus O-acetyl-L-serine sulfhydrylase (CysK) (enzyme, S. aureus, UniProt P63871 1-310, looked up, PLP cofactor in a Schiff base linkage with the ε-amino group of K46) MAQKPVDNITQIIGGTPVVKLRNVVDDNAADVYVKLEYQNPGGSVKDRIALAMIEKAEREGKIKPGDTIVEPTSGNTGIGLAFVCAAKGYKAVFTMPETMSQERRNLLKAYGAELVLTPGSEAMKGAIKKAKELKEEHGYFEPQQFENPANPEVHELTTGPELLQQFEGKTIDAFLAGVGTGGTLSGVGKVLKKEYPNIEIVAIEPEASPVLSGGEPGPHKLQGLGAGFIPGTLNTEIYDSIIKVGNDTAMEMSRRVAKEEGILAGISSGAAIYAAIQKAKELGKGKTVVTVLPSNGERYLSTPLYSFDD |  | 2 |
